Measured values taken from article PMC9352680, “A comprehensive thermodynamic model for RNA binding by the Saccharomyces cerevisiae Pumilio protein PUF4”.
Substitutions are numbered along the chain they refer to. Names and notes keep the numbering of the source.

T1: PUF4 RNA-binding domain (Saccharomyces cerevisiae, UniProt P25339 537-888)
T1 sequence: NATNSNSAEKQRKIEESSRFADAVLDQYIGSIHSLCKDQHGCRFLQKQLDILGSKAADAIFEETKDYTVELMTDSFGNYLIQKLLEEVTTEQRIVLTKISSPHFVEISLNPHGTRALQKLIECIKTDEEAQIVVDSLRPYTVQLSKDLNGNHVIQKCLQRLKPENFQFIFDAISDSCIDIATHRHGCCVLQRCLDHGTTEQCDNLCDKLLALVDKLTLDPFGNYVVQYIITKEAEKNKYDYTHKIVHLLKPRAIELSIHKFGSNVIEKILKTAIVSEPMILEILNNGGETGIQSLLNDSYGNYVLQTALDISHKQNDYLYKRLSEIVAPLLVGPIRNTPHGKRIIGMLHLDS

B1: Id_ii_S4_P3E.4_K3.3_C3.2_[C-2T]_[T-1A]_H3.3_A3.1_F3.1_T3.2_[A10T] (ssRNA)
RNA: UUUGACAACUGAUCGUUCUUUCUUAACACUAUAUUUUCUUUCUCGAUCAGUUGUCUUU
B2: Id_ii_S4_P3E.4_K3.3_C3.2_[C-2A]_[T-1C]_H3.3_A3.1_F3.1_T3.2_[T9A]_[A10C] (ssRNA)
RNA: B1 RNA with U24A, A25C, U34A, U35C
B3: Id_ii_S4_P3E.4_K3.3_C3.2_H3.3_A3.1_F3.1_T3.2_[T9C] (ssRNA)
RNA: B1 RNA with U24C, A25U, U34C, U35A
B4: Id_ii_S4_P3E.4_K3.3_C3.2_H3.3_A3.1_F3.1_T3.2_[T9C]_[A10T] (ssRNA)
RNA: B1 RNA with U24C, A25U, U34C
B5: Id_ii_S4_P3E.4_K3.3_C3.2_[C-2A]_[T-1C]_H3.3_A3.1_F3.1_T3.2_[A10T] (ssRNA)
RNA: B1 RNA with U24A, A25C
B6: Id_ii_S4_P3E.4_K3.3_C3.2_[T-1C]_H3.3_A3.1_F3.1_T3.2_[T9G]_[A10C] (ssRNA)
RNA: B1 RNA with U24C, A25C, U34G, U35C
B7: Id_ii_S4_P3E.4_K3.3_C3.2_[T-1A]_H3.3_A3.1_F3.1_T3.2 (ssRNA)
RNA: B1 RNA with U24C, U35A
B8: Id_ii_S4_P3E.4_K3.3_C3.2_[C-2A]_H3.3_A3.1_F3.1_T3.2_[A10C] (ssRNA)
RNA: B1 RNA with U24A, A25U, U35C
B9: Id_ii_S4_P3E.4_K3.3_C3.2_[C-2A]_[T-1A]_H3.3_A3.1_F3.1_T3.2_[T9C] (ssRNA)
RNA: B1 RNA with U24A, U34C, U35A
B10: Id_ii_S4_P3E.4_K3.3_C3.2_[C-2A]_[T-1C]_H3.3_A3.1_F3.1_T3.2_[T9G]_[A10C] (ssRNA)
RNA: B1 RNA with U24A, A25C, U34G, U35C
B11: Id_ii_S4_P3E.4_K3.3_C3.2_[T-1C]_H3.3_A3.1_F3.1_T3.2_[A10T] (ssRNA)
RNA: B1 RNA with U24C, A25C
B12: Id_ii_S4_P3E.4_K3.3_C3.2_H3.3_A3.1_F3.1_T3.2_[A10C] (ssRNA)
RNA: B1 RNA with U24C, A25U, U35C
B13: Id_ii_S4_P3E.4_K3.3_C3.2_[C-2T]_H3.3_A3.1_F3.1_T3.2_[T9G]_[A10C] (ssRNA)
RNA: B1 RNA with A25U, U34G, U35C
B14: Id_ii_S4_P3E.4_K3.3_C3.2_[C-2T]_H3.3_A3.1_F3.1_T3.2_[T9A]_[A10C] (ssRNA)
RNA: B1 RNA with A25U, U34A, U35C
B15: Id_ii_S4_P3E.4_K3.3_C3.2_[T-1G]_H3.3_A3.1_F3.1_T3.2_[T9A] (ssRNA)
RNA: B1 RNA with U24C, A25G, U34A, U35A
B16: Id_ii_S4_P3E.4_K3.3_C3.2_[C-2T]_H3.3_A3.1_F3.1_T3.2 (ssRNA)
RNA: B1 RNA with A25U, U35A
B17: Id_ii_S4_P3E.4_K3.3_C3.2_[C-2T]_H3.3_A3.1_F3.1_T3.2_[A10T] (ssRNA)
RNA: B1 RNA with A25U
B18: Id_ii_S4_P3E.4_K3.3_C3.2_[T-1A]_H3.3_A3.1_F3.1_T3.2_[T9C]_[A10C] (ssRNA)
RNA: B1 RNA with U24C, U34C, U35C
B19: Id_ii_S4_P3E.4_K3.3_C3.2_[C-2T]_H3.3_A3.1_F3.1_T3.2_[T9A] (ssRNA)
RNA: B1 RNA with A25U, U34A, U35A
B20: Id_ii_S4_P3E.4_K3.3_C3.2_[C-2T]_[T-1A]_H3.3_A3.1_F3.1_T3.2 (ssRNA)
RNA: B1 RNA with U35A
B21: Id_ii_S4_P3E.4_K3.3_C3.2_[C-2A]_H3.3_A3.1_F3.1_T3.2_[A10T] (ssRNA)
RNA: B1 RNA with U24A, A25U
B22: Id_ii_S4_P3E.4_K3.3_C3.2_[T-1G]_H3.3_A3.1_F3.1_T3.2_[T9C] (ssRNA)
RNA: B1 RNA with U24C, A25G, U34C, U35A
B23: Id_ii_S4_P3E.4_K3.3_C3.2_[C-2A]_[T-1A]_H3.3_A3.1_F3.1_T3.2_[A10C] (ssRNA)
RNA: B1 RNA with U24A, U35C
B24: Id_ii_S4_P3E.4_K3.3_C3.2_[C-2A]_H3.3_A3.1_F3.1_T3.2_[T9A]_[A10C] (ssRNA)
RNA: B1 RNA with U24A, A25U, U34A, U35C
B25: Id_ii_S4_P3E.4_K3.3_C3.2_[T-1G]_H3.3_A3.1_F3.1_T3.2_[T9C]_[A10T] (ssRNA)
RNA: B1 RNA with U24C, A25G, U34C
B26: Id_ii_S4_P4E.2_K4.1_C4.2_[C-2G]_[T-1C]_H4.1_A4.1_F4.1_T4.2_[G10C]_[T11C] (ssRNA)
RNA: UUUGACAACUGAUCGUUCUUUCUGCUGUAUAUUACCUUCUUUCUCGAUCAGUUGUCUUU
B27: Id_ii_S4_P4E.2_K4.1_C4.2_[C-2T]_[T-1C]_H4.1_A4.1_F4.1_T4.2_[G10T]_[T11C] (ssRNA)
RNA: B26 RNA with G24U, C35U
B28: Id_ii_S4_P4E.2_K4.1_C4.2_[C-2T]_H4.1_A4.1_F4.1_T4.2_[T11C] (ssRNA)
RNA: B26 RNA with G24U, C25U, C35G
B29: Id_ii_S4_P4E.2_K4.1_C4.2_[C-2A]_H4.1_A4.1_F4.1_T4.2_[G10A]_[T11A] (ssRNA)
RNA: B26 RNA with G24A, C25U, C35A, C36A
B30: Id_ii_S4_P4E.2_K4.1_C4.2_[C-2G]_H4.1_A4.1_F4.1_T4.2_[G10T]_[T11A] (ssRNA)
RNA: B26 RNA with C25U, C35U, C36A
B31: Id_ii_S4_P4E.2_K4.1_C4.2_[C-2T]_[T-1A]_H4.1_A4.1_F4.1_T4.2_[T11C] (ssRNA)
RNA: B26 RNA with G24U, C25A, C35G
B32: Id_ii_S4_P4E.2_K4.1_C4.2_[C-2T]_[T-1A]_H4.1_A4.1_F4.1_T4.2 (ssRNA)
RNA: B26 RNA with G24U, C25A, C35G, C36U
B33: Id_ii_S4_P4E.2_K4.1_C4.2_[C-2A]_[T-1C]_H4.1_A4.1_F4.1_T4.2_[G10C] (ssRNA)
RNA: B26 RNA with G24A, C36U
B34: Id_ii_S4_P4E.2_K4.1_C4.2_[C-2T]_[T-1A]_H4.1_A4.1_F4.1_T4.2_[G10A]_[T11C] (ssRNA)
RNA: B26 RNA with G24U, C25A, C35A
B35: Id_ii_S4_P4E.2_K4.1_C4.2_[C-2A]_H4.1_A4.1_F4.1_T4.2_[G10T] (ssRNA)
RNA: B26 RNA with G24A, C25U, C35U, C36U
B36: Id_ii_S4_P4E.2_K4.1_C4.2_[C-2T]_H4.1_A4.1_F4.1_T4.2 (ssRNA)
RNA: B26 RNA with G24U, C25U, C35G, C36U
B37: Id_ii_S4_P4E.2_K4.1_C4.2_[C-2A]_[T-1C]_H4.1_A4.1_F4.1_T4.2_[G10T]_[T11A] (ssRNA)
RNA: B26 RNA with G24A, C35U, C36A
B38: Id_ii_S4_P4E.2_K4.1_C4.2_[C-2A]_[T-1G]_H4.1_A4.1_F4.1_T4.2_[G10A]_[T11A] (ssRNA)
RNA: B26 RNA with G24A, C25G, C35A, C36A
B39: Id_ii_S4_P4E.2_K4.1_C4.2_[C-2A]_[T-1A]_H4.1_A4.1_F4.1_T4.2_[G10A] (ssRNA)
RNA: B26 RNA with G24A, C25A, C35A, C36U
B40: Id_ii_S4_P4E.2_K4.1_C4.2_[C-2T]_H4.1_A4.1_F4.1_T4.2_[G10A]_[T11G] (ssRNA)
RNA: B26 RNA with G24U, C25U, C35A, C36G
B41: Id_ii_S4_P4E.2_K4.1_C4.2_[C-2A]_[T-1G]_H4.1_A4.1_F4.1_T4.2_[G10T]_[T11C] (ssRNA)
RNA: B26 RNA with G24A, C25G, C35U
B42: Id_ii_S4_P4E.2_K4.1_C4.2_[C-2T]_H4.1_A4.1_F4.1_T4.2_[G10T]_[T11G] (ssRNA)
RNA: B26 RNA with G24U, C25U, C35U, C36G
B43: Id_ii_S4_P4E.2_K4.1_C4.2_[C-2T]_[T-1A]_H4.1_A4.1_F4.1_T4.2_[G10T]_[T11C] (ssRNA)
RNA: B26 RNA with G24U, C25A, C35U
B44: Id_ii_S4_P4E.2_K4.1_C4.2_[C-2A]_[T-1C]_H4.1_A4.1_F4.1_T4.2_[G10T]_[T11C] (ssRNA)
RNA: B26 RNA with G24A, C35U
B45: Id_ii_S4_P4E.2_K4.1_C4.2_[C-2T]_H4.1_A4.1_F4.1_T4.2_[G10A]_[T11C] (ssRNA)
RNA: B26 RNA with G24U, C25U, C35A
B46: Id_ii_S4_P4E.2_K4.1_C4.2_[C-2A]_[T-1A]_H4.1_A4.1_F4.1_T4.2_[G10T] (ssRNA)
RNA: B26 RNA with G24A, C25A, C35U, C36U
B47: Id_ii_S4_P4E.2_K4.1_C4.2_[C-2G]_[T-1C]_H4.1_A4.1_F4.1_T4.2_[G10T] (ssRNA)
RNA: B26 RNA with C35U, C36U
B48: Id_ii_S4_P4E.2_K4.1_C4.2_[C-2G]_H4.1_A4.1_F4.1_T4.2_[G10C]_[T11C] (ssRNA)
RNA: B26 RNA with C25U
B49: Id_ii_S4_P4E.2_K4.1_C4.2_[T-1G]_H4.1_A4.1_F4.1_T4.2_[G10T] (ssRNA)
RNA: B26 RNA with G24C, C25G, C35U, C36U
B50: Ib_S1_P5E.1_K5.1_C5.1_H5.1_[G2A]_A5.1_[T6C]_F5.1_T5.1 (ssRNA)
RNA: UCUCUUUAUAUCAUUAUCUCUU
B51: Ib_S1_P5E.1_K5.1_C5.1_H5.1_[G2A]_A5.1_[T5C]_F5.1_T5.1 (ssRNA)
RNA: UCUCUUUAUACUAUUAUCUCUU
B52: Ib_S1_P5E.1_K5.1_C5.1_H5.1_[G2A]_A5.1_[T5G]_F5.1_T5.1 (ssRNA)
RNA: UCUCUUUAUAGUAUUAUCUCUU
B53: Ib_S1_P5E.1_K5.1_C5.1_H5.1_[G2T]_A5.1_[T6A]_F5.1_T5.1 (ssRNA)
RNA: UCUCUUUUUAUAAUUAUCUCUU
B54: Ib_S1_P5E.1_K5.1_C5.1_H5.1_[G2C]_A5.1_[T6C]_F5.1_T5.1 (ssRNA)
RNA: UCUCUUUCUAUCAUUAUCUCUU

biological target: T1, PUF4 RNA-binding domain; experiment: Mg; RNA-MaP; 20 mM Na-HEPES pH 7.4, 30 mM KOAc, 0.75 mM MgCl2, 0.1% Tween-20, 5% glycerol, 0.1 mg/mL BSA, 2 mM DTT; 25 C; 0.0125-409.6 nM protein; conditions: tags: N-His6-TEV cleaved; C-SNAP kept, Cy3B-labelled; label: tethered on chip by stalled RNA polymerase

Binder	Kd [nM]
B1	1310
B2	1370
B3	597
B4	1380
B5	1140
B6	> 2300
B7	291
B8	41.8
B9	496
B10	> 2300
B11	1050
B12	926
B13	1230
B14	935
B15	> 2300
B16	345
B17	946
B18	2160
B19	2300
B20	264
B21	49.3
B22	637
B23	1020
B24	26.4
B25	> 2300
B26	1.35
B27	0.319

Binder	Kd [nM]
B28	0.339
B29	1.35
B30	0.515
B31	0.368
B32	0.659
B33	1.24
B34	1.15
B35	0.312
B36	0.37
B37	0.625
B38	1.62
B39	1.37
B40	3.49
B41	2.16
B42	0.308
B43	0.343
B44	0.306
B45	0.493
B46	1.56
B47	0.295
B48	1.76
B49	0.196
B50	752
B51	330
B52	1360
B53	> 2300
B54	> 2300
